Source: patent publication US8075919B2, “Methods for fabrication, uses and compositions of small spherical particles prepared by controlled phase separation” (Baxter International Inc., priority 2003, dated 2011)

Columns and labels:
DNA-Methyl Green = settings: listed value for the starting material; cited from earlier work
[1] = target: porcine pancreatic elastase (PPE) (Sus scrofa, UniProt P00772); assay: Inhibition of porcine pancreatic elastase by rAAT (specific activity); assay type: biochemical
Description: To determine the specific activity, the rAAT small spherical particles were dissolved in 0.2M Tris-HCl pH 8.0 at room temperature. The resulting solution was analyzed by an assay which measures the capacity of rAAT to inhibit the ability of porcine pancreatic elastase (PPE) to hydrolyze synthetic peptides that contain a p-nitroanilide group at their C-terminus. The same solution of rAAT small spherical particles was then assayed for protein concentration using the Bicinchoninic Acid (BCA) assay. A control rAAT starting material solution was also analyzed in both assays. Because the activity assay was developed to determine the activity based on a concentration of 1 mg/ml protein per sample, the activity value was corrected based on the actual protein concentration as determined by BCA, giving the specific activity value:
[formula] Inhibition of Porcine Pancreatic Elastase by rAAT

Sequence of porcine pancreatic elastase (PPE) (P00772 27-266): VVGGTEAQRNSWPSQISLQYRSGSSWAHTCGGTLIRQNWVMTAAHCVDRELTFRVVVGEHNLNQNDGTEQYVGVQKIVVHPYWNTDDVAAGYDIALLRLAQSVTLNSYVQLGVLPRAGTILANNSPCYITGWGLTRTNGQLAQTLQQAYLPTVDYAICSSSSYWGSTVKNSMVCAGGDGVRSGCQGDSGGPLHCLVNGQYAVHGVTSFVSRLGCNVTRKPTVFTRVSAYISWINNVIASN

Substance | theoretical activity as listed (DNA-Methyl Green) [Ku/mg protein] | specific activity ([1]; scale 100-300 mg (n = 12, column)) [IU/mg] | specific activity ([1]; scale 200-300 mg (n = 8, vessel)) [IU/mg]
DNase [DNase starting material] | 775 | – | –
alpha-1-antitrypsin [control rAAT starting material] | – | 64.34 ± 4.95 | 65.87 ± 0.98
